The values that follow come from PMC7396675, “Functional and Structural Characterization of a Potent C1q Inhibitor Targeting the Classical Pathway of the Complement System” (Frontiers in Immunology, 2020).

In general, Kd refers to the free concentration of one partner at which half of the binding sites on the other are occupied at equilibrium, for simple one-to-one binding.

For experiment [1], the target named is T1, monomeric single-chain recombinant gC1q (Homo sapiens).
T1 construct: globular head module of human C1q A-chain; numbers count on: the mature protein; globular head module of human C1q C-chain; globular head module of human C1q B-chain; also called single-chain form of gC1q; hC1qGH
T1 chain: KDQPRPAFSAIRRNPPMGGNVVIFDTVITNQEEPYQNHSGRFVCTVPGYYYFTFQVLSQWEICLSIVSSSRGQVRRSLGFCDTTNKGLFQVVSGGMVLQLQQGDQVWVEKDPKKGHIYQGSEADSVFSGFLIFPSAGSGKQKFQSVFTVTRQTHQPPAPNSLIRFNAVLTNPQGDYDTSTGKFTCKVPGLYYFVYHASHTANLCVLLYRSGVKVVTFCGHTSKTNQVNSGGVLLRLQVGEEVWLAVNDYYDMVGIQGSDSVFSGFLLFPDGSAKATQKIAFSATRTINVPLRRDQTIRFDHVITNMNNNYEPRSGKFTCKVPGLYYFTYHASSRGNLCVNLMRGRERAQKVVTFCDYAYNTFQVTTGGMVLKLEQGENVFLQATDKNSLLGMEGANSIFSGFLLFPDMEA
The experiment in a line: BLI; Octet Red96, 30°C, 1,000 rpm; C1qNb75 immobilized on amine reactive (AR2G) biosensors; kinetics buffer (PBS, 1 mg/mL BSA, 0.05% Tween 20); gC1q 0.3 to 10.9 nM, C1q 0.7 to 5.4 nM; gC1q data globally fitted with a 1:1 binding model. Particulars: both partners purified.

The target in experiment [2] is human C1q (Homo sapiens, UniProt P02745;P02746;P02747). The experiment in a line: cell-based or functional assay.
Chain of human C1q (P02745 23-245, chain 1 of 2): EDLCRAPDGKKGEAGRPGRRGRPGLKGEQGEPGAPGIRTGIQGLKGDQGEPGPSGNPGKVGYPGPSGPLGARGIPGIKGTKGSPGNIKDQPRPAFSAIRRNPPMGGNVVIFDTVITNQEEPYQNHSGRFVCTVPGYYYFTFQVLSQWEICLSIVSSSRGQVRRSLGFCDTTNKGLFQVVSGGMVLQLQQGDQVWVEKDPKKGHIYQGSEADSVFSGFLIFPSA
Chain of human C1q (P02747 29-245, chain 3 of 2): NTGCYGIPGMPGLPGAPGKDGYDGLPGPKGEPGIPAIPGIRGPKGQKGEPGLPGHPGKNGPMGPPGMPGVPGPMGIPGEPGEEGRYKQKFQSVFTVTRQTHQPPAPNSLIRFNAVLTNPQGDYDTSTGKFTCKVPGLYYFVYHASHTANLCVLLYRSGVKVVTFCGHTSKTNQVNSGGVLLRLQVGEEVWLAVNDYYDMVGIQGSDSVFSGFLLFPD

B1: C1qNb75 (VHH)
VHH: QVQLVETGGGLVQAGGSLRLSCAASGRTFNNDVMAWFRQAPGTEREFVALITAGGGTHYADSVKGRFVISRDNDKNMAYLQMNSLKSEDTAIYYCGADENPPGWPSRWSSAYDYWGQGTQVTVSS
notes: nanobody chain of the crystal structure deposited here as PDB 6Z6V; also called C1q specific nanobody; source: E. coli LOBSTR cells (pET22b+), purified (Ni-NTA, MonoS, Superdex75)
As for B1, in experiment [1], the dissociation constant (Kd) worked out at 0.3 nM and the t1/2 was found to be 1.14 h. The “IC50 of hemolysis of IgM-sensitized sheep RBCs in NHS with increasing concentrations of C1qNb75 (blocks C1q binding to IgM)” value in experiment [2] was 5.8 nM.
